Data: the supplement of paper PMC6757056
± gives the standard deviation of the averaged measurements.

B1: library; a variant is named by its letters at N, in order (parent)
chain: GCUGUCACCGGUGCUUGGUACGUUAUAUUCAGCCGGUCUGAUGAGUCUNNNNNNAGACGAAACAGC

Key:
(6R,S)-folinic acid [1] = variants of: B1; experiment: normalized RNA/DNA level without ligand (relative to sTRSVctl = 100) (log10 (% of sTRSVctl)); HEK293T overexpressing SLC46A1; higher = less ribozyme self-cleavage, higher mRNA level; settings: without (6R,S)-folinic acid; ligand present: no
Method in brief: (§1)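 HEK293T cells were transfected with library plasmids carrying ribozyme switches linked to an mCherry reporter, or an eGFP reporter in some ligand experiments, at 4 µg per well of a 6-well plate, with any ligand added 1 h beforehand. After 72 h, total RNA was extracted with EDTA, reverse-transcribed, amplified, barcoded and sequenced. RNA level was defined as RNA reads over DNA reads, normalized to a spiked-in non-cleaving sequence or to the top-ranked sequences. That value was multiplied by 100 and converted to log10, the top set was 25 sequences, and only sequences with ≥100 DNA reads were retained.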

(6R,S)-folinic acid [2] = variants of: B1; experiment: normalized RNA/DNA level with ligand (relative to sTRSVctl = 100) (log10 (% of sTRSVctl)); HEK293T overexpressing SLC46A1; ligand concentration (+) RNA-Seq: 6 mM; higher = less ribozyme self-cleavage, higher mRNA level; settings: with (6R,S)-folinic acid; ligand present: yes
Method in brief: as §1

| Variant | normalized RNA/DNA level without ligand (log10) ((6R,S)-folinic acid [1]) | normalized RNA/DNA level with ligand (log10) ((6R,S)-folinic acid [2]) |
| --- | --- | --- |
| CGUUGU | 2.004 ± 0.0073 | 2 ± 0.047 |
| UCAUCG | 1.997 ± 0.0043 | 2.01 ± 0.04 |
| UCUCCC | 2.07 ± 0.021 | 2.06 ± 0.05 |
| AGCACC | 2.08 ± 0.031 | 2 ± 0.03 |
| UUAACA | 1.998 ± 0.0047 | 1.971 ± 0.01 |
| CUUUGG | 2.023 ± 0.0097 | 1.994 ± 0.013 |
| CUAAUC | 2.072 ± 0.014 | 2.007 ± 0.013 |
| UGCGUU | 1.972 ± 0.018 | 2 ± 0.051 |
| UGCGUA | 1.904 ± 0.015 | 1.98 ± 0.035 |
| CGUACU | 2.0544 ± 0.00062 | 2.043 ± 0.0063 |
| GCUGGG | 1.979 ± 0.0048 | 2.01 ± 0.021 |
| CAACAU | 1.978 ± 0.0086 | 2.02 ± 0.057 |
| CAACAG | 1.976 ± 0.00034 | 2.01 ± 0.062 |
| CCAUAU | 1.961 ± 0.0029 | 1.99 ± 0.032 |
| UGUUCU | 2.031 ± 0.0043 | 2.08 ± 0.035 |
| UGUUCA | 1.991 ± 0.012 | 2.0188 ± 0.0011 |
| GGAUGA | 2.024 ± 0.02 | 2.058 ± 0.0075 |
| AGGCCC | 2.068 ± 0.0036 | 2.03 ± 0.056 |
| UUUGUA | 1.959 ± 0.0085 | 2.007 ± 0.014 |
| UUUGUU | 1.944 ± 0.0033 | 1.99 ± 0.032 |
| AUCUGA | 2.021 ± 0.016 | 2.02 ± 0.058 |
| CACGCG | 2 ± 0.023 | 1.997 ± 0.0065 |
| CAGGAA | 1.928 ± 0.0064 | 1.99 ± 0.05 |

| Variant | normalized RNA/DNA level without ligand (log10) ((6R,S)-folinic acid [1]) | normalized RNA/DNA level with ligand (log10) ((6R,S)-folinic acid [2]) |
| --- | --- | --- |
| CUCCCA | 2.064 ± 0.0049 | 2.01 ± 0.061 |
| UCAAAU | 1.96 ± 0.017 | 2.004 ± 0.017 |
| GAGAUA | 1.993 ± 0.011 | 2.03 ± 0.026 |
| CGAGCU | 2.014 ± 0.02 | 2.03 ± 0.04 |
| UGACUC | 2.075 ± 0.011 | 2.042 ± 0.0068 |
| CCUGAG | 1.932 ± 0.019 | 1.97 ± 0.025 |
| CUGCCA | 2.05 ± 0.027 | 2.04 ± 0.033 |
| CGGAGG | 1.83 ± 0.02 | 1.994 ± 0.01 |
| GUUUGC | 1.951 ± 0.018 | 2.02 ± 0.067 |
| AGAACU | 2.036 ± 0.0042 | 2.075 ± 0.0036 |
| AUCCGC | 2.054 ± 0.019 | 2.032 ± 0.005 |
| CGUGAG | 1.97 ± 0.029 | 1.99 ± 0.028 |
| UUUCAC | 2.0237 ± 0.0014 | 2.0028 ± 0.00095 |
| GGUCGG | 2.053 ± 0.02 | 2.07 ± 0.062 |
| CACCAC | 1.998 ± 0.019 | 1.99 ± 0.026 |
| AAGGAC | 1.966 ± 0.0074 | 1.99 ± 0.037 |
| ACGCGA | 1.986 ± 0.011 | 2.042 ± 0.0061 |
| ACGCGC | 1.997 ± 0.0046 | 2.01 ± 0.059 |
| GACGCU | 2.05 ± 0.0071 | 2.03 ± 0.021 |
| GACCGC | 2.0652 ± 0.00035 | 2.018 ± 0.011 |
| UACUCG | 1.8448 ± 0.00067 | 1.99 ± 0.031 |
| CGUAAC | 1.98 ± 0.025 | 1.99 ± 0.043 |
| UCCCCU | 2.06 ± 0.025 | 2.04 ± 0.049 |

| Variant | normalized RNA/DNA level without ligand (log10) ((6R,S)-folinic acid [1]) | normalized RNA/DNA level with ligand (log10) ((6R,S)-folinic acid [2]) |
| --- | --- | --- |
| GCGGCA | 2.071 ± 0.0038 | 2.07 ± 0.048 |
| CGUGUA | 1.981 ± 0.009 | 2 ± 0.028 |
| GUGGGU | 1.98 ± 0.022 | 2 ± 0.045 |
| GGAAGC | 1.9092 ± 0.0019 | 1.99 ± 0.044 |
| CCACUA | 2.018 ± 0.0041 | 2.02 ± 0.015 |
| CCAUUA | 1.9907 ± 0.00033 | 2 ± 0.023 |
| AUCGUC | 2.106 ± 0.011 | 2.06 ± 0.027 |
| AUCGUA | 1.982 ± 0.008 | 1.993 ± 0.013 |
| GAUCGU | 2.02 ± 9.8e-05 | 2.02 ± 0.052 |
| GCCACG | 1.99 ± 0.04 | 2.03 ± 0.062 |
| GUAUGA | 1.987 ± 0.0024 | 2.028 ± 0.017 |
| GCCGAC | 1.982 ± 0.0078 | 2.04 ± 0.029 |
| CCGCUG | 2.047 ± 0.0097 | 2.067 ± 0.012 |
| UAAUCA | 1.945 ± 0.013 | 1.97 ± 0.04 |
| CAAUAC | 1.984 ± 0.017 | 1.97 ± 0.038 |
| CGGCCU | 2.0767 ± 0.00028 | 2.06 ± 0.068 |
| AGCGGG | 2.004 ± 0.016 | 2.055 ± 0.019 |
| GUUAAA | 1.991 ± 0.011 | 2 ± 0.039 |
| UAGGUC | 2.05 ± 0.022 | 2 ± 0.054 |
| AUUAAG | 1.931 ± 0.011 | 2.01 ± 0.026 |
| CGAUGG | 1.928 ± 0.017 | 1.972 ± 0.019 |
| AUCAUA | 1.98 ± 0.02 | 1.99 ± 0.046 |
| CGUCCA | 2.0366 ± 0.0014 | 2.02 ± 0.035 |

| Variant | normalized RNA/DNA level without ligand (log10) ((6R,S)-folinic acid [1]) | normalized RNA/DNA level with ligand (log10) ((6R,S)-folinic acid [2]) |
| --- | --- | --- |
| CCCACU | 2.103 ± 0.016 | 2.08 ± 0.062 |
| ACCCGC | 2.038 ± 0.02 | 2.03 ± 0.041 |
| CAAUCG | 2.024 ± 0.012 | 2.02 ± 0.0061 |
| AUGUCG | 1.93 ± 0.0088 | 1.99 ± 0.027 |
| AGUCUU | 2.017 ± 0.0028 | 1.99 ± 0.028 |
| CUCGAU | 1.99 ± 0.0044 | 1.991 ± 0.0061 |
| UAGAUA | 1.961 ± 0.0041 | 2.01 ± 0.025 |
| GUCCCG | 2.004 ± 0.019 | 1.98 ± 0.024 |
| CCACCA | 2.044 ± 0.012 | 2.01 ± 0.041 |
| GGACCU | 2.062 ± 0.0094 | 2.02 ± 0.033 |
| CACCGG | 1.9715 ± 0.00014 | 2.01 ± 0.0069 |
| UCCGAU | 1.96 ± 0.026 | 2 ± 0.038 |
| CUCCUG | 2.07 ± 0.016 | 2.064 ± 0.014 |
| CCUUCG | 2.017 ± 0.019 | 2.045 ± 0.012 |
| GAAGGU | 1.974 ± 0.0097 | 2.02 ± 0.043 |
| AAAGCC | 2.03 ± 0.013 | 2.05 ± 0.028 |
| GGGUUA | 2.052 ± 0.0032 | 2.034 ± 0.01 |
| CUCUGU | 2.0266 ± 0.0016 | 2.037 ± 0.0081 |
| CUCUGC | 2.02 ± 0.025 | 2.03 ± 0.027 |
| UCUGUC | 2.056 ± 0.0093 | 2.07 ± 0.075 |
| UUGCGC | 2.062 ± 0.007 | 2.079 ± 0.00078 |
| AUCAGA | 2.047 ± 0.0058 | 2.04 ± 0.031 |
| CACGUU | 2.0092 ± 0.00093 | 1.99 ± 0.038 |

| Variant | normalized RNA/DNA level without ligand (log10) ((6R,S)-folinic acid [1]) | normalized RNA/DNA level with ligand (log10) ((6R,S)-folinic acid [2]) |
| --- | --- | --- |
| GCGCUU | 2.053 ± 0.018 | 2.048 ± 0.015 |
| AACCCA | 2.033 ± 0.016 | 2.03 ± 0.022 |
| CAGCUC | 2.05 ± 0.023 | 2.035 ± 0.013 |
| GUGGAU | 1.9394 ± 0.0013 | 2.01 ± 0.035 |
| UCUAUC | 2.07 ± 0.024 | 2.062 ± 0.0087 |
| CCGCGC | 2.067 ± 0.012 | 2.05 ± 0.068 |
| CCGCGU | 2.05 ± 0.026 | 2.054 ± 0.015 |
| AUCCCG | 2.01 ± 0.0024 | 2.01 ± 0.029 |
| GAUACU | 2.001 ± 0.0036 | 2.01 ± 0.036 |
| GACAAU | 1.967 ± 0.012 | 1.99 ± 0.045 |
| GACCUA | 2.05 ± 0.0099 | 2.05 ± 0.035 |
| ACCAUA | 1.988 ± 0.0064 | 2.013 ± 0.019 |
| CGGGCG | 1.993 ± 0.005 | 2.04 ± 0.043 |
| CGCUCG | 2.047 ± 0.0074 | 2.018 ± 0.015 |
| ACACUG | 1.968 ± 0.01 | 2.03 ± 0.044 |
| GUAUCC | 2.015 ± 0.013 | 2 ± 0.035 |
| GUAUCU | 2.034 ± 0.0026 | 2.038 ± 0.011 |
| CCGUUC | 2.048 ± 0.0038 | 2.03 ± 0.071 |
| AUGCCG | 1.979 ± 0.0032 | 2 ± 0.023 |
| GUCUUC | 2.073 ± 0.0035 | 2.027 ± 0.0036 |
| ACGAGG | 1.86 ± 0.034 | 1.995 ± 0.011 |
| UCACGC | 2.036 ± 0.0036 | 1.97 ± 0.023 |
| GACCAC | 2.001 ± 0.012 | 2.002 ± 0.0054 |
